Laboratory results published in the nanobody polyreactivity screen of Harvey et al. (2022).

Experiment: yeast display, Sf9 membrane polyspecificity reagent, FACS + sequencing; frameworks hold sequencing errors
How it was run: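 Sorting gates, low and high (top ~1%), were placed on anti-HA fluorescence to track expression and on streptavidin fluorescence to track reagent binding. A clone's polyreactivity label is taken from the gate it came out of. The reagent was 10% biotinylated, detergent-solubilized Sf9 membrane, applied for 1 hour at 4 °C to galactose-induced yeast display cells.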

Row | Sequence | polyreactivity (PSR sort gate)
1 | QVQLVESGGGLVQAGGSLRLSCSAYGSTLGYYAMGWYRQAPGKERELVAAIRYSDGNTYYADSVKGRFTISRDNAKNTVYLQMNSLKPEDTAVYYCAADGGYYGRDYWGQGTQVTVSS | high polyreactivity
2 | QVQLVESGGGFVQAGGSLRLTCAASGYIFANYGMGWYRQAPGKQMELVAAISGSGGSTYYADSVKGRFTISRDNAKNTVYLQMNSLKPQDTAVYYCAALSNWWSYFTCYDGSDGFDYWVQGTQVTVSS | low polyreactivity
3 | QVQLVESGGGLVQAGGSLRLSCAASGRIFSTYTMGWYSQAPGKDRELVARSSWSAGRTYYADSVKGRFTISRDNAKNSVYLQMNSLKPEETAVYYCAADGYTQRGYDYWGQGTQVTVSS | high polyreactivity
4 | QVQLVESGGGLVQAGGSLRLSCADSGSTFWYDMGWYRQAPGKERELVAAISDAGSTYYADSVKGRFTISRDNAKITVYLQMNSLKPEDTGFYFCAADGVYWRWYLYTFWMDYWGQGTQVTVSS | low polyreactivity
5 | QVQLVESGGGLVQAGGSLRLSCAASGFTFVRYAMGWYRQAPGKEREFVAGITRSGGSTYYADSVKGRFTISRDNAKNTVYLQMNSLKPEDTAVYYCNRAYYSYHDQPYEYWGQGTQVSVSS | high polyreactivity
6 | QVQLVESGGGLVQAGGSLRLSCAASGSIISGYAMGLDRQARGKERDLVAAISSGGRTKYADSVKGRFTISRDNAKNTVYLQMNSLKPEDTAVYYCNVSYLVYRWIFGWSLDYWGQGTQVTVSS | low polyreactivity
7 | QVQLVESGGGLVQAGGSVRLSCAASGSIFNANTMGWYRQAPGKERELVAVITSGGTTNYADSVKGRFTISRDNAKNTVYLQMNSLKPEDTAVYYCAVRISGNWYDYWGQGTQVTVSS | low polyreactivity
8 | QVQLVESGGGLVQAGGSLRLSCAASGSIFYYYAMGWSRQAPGKERELVAGINSGDSTYYADSVKGRFTISRDNAKNTVYLQMNRLKPEYTAVYYCAASADWWYEYWGQGTEVTVSS | low polyreactivity
9 | QVQLEESGGGLVQAGGSLRLSCAASGLTIFVNAMGWYRQAPGKERELVATISGGGSTYYADSVKARFTISRDNAKNTVYLQMNSLKPEDTAVYYCATVWPHRFRYEYWGQGTQVTVSS | low polyreactivity
10 | QVQLVESGGGLVQAGGSLRLSCAATGRIFRVYAMGWYRQAPGKVRELVAAISSGGSTNYADSVKGGFTISRDNAKNTVYLQMKSLKPEDTAVYYCAADYWYRLFWYYGAPLDYWGQGTQVTVSS | low polyreactivity
11 | QVQLVESGGGLVQAGRSLRLSCAASGSIFEYYAMGWSRQAPGKEWELVAAITESGGSTYYADSVKGRFHNFTRQCEEYRLFTDEQPETGRYRGLLLAADAESYQNDYALDYWGQGTQETVSS | low polyreactivity
12 | HVKLQESGDGLVQAGGSLRLSSAPSGTIYSDYGMGGSRQAPGKERELLAGISDGCNTNYTDSVKGRFTISRDNAHRVSADEQPETGGYRGVLLRGSERWLLFYVYWGQGTQVTVSS | high polyreactivity
13 | QVQLVESGGGLVQAGGSLRLSCDASGRTFPDYAIGWYIQAPGKESELVAAISGSGGSTYYADSVKGRFTISRDNAKNTVYLQMNSLKPEDTAVYYCAAEAETLLWYWFPSAVDYWGQGTQVTVSS | high polyreactivity
14 | QVQLVESGGGLVQAGGSHRLSCAASGGTFYYYTMGWYRQAPGKERELVAAISWSGGSTYYADSVKGRFTISRNNEKNTVYLQMKSLKPEDSAVYYCNAVYAGRFGSHYWGQCTQVTVSS | high polyreactivity
15 | QVQLVESGGGLVQAGGSLRLSCAASGRIFSGYAMGWYRQAPGKERELVAAITWNGVSTYYADSVKGRFTISRDNAKNTVYLQMNSLKPEDTAVYYCNAEVYSDPYNDHDYWGQGTQVTVSS | low polyreactivity
16 | QVQLVESGGGLVQAGGSLRLSCAASGITFPANARGWYRPAPGKERELVAAISSSGDSTYYADSVKGRFTISRDNAKNTVYFQMNILKPEDTAVYYCAAKDYVWGQGTQVTVSS | low polyreactivity

Row | Sequence | polyreactivity (PSR sort gate)
17 | QVQLVESGGGLVQAGGSLRLSCAASGYTFGKYAMGWYRQAPGKERELVAGISSRGGSTYYADSVKGRFTISRDNAKNTVYLQMNSLKPEDTAVYYCAAVAYTGGPRKLGFNYWGQGTQVSVSS | high polyreactivity
18 | QVQLVESGGGLVQAGGSLRLSCAASGLIFRAYAMGWYRQAPGKERELVAAISRRGGSTYYADSVKGRFTISRDNANNTVYLQMNSLKPEDSAVYYCNKDSRSWPFKYDYWGQGTQVTVSS | high polyreactivity
19 | QVQLVESVGGLVQAGGSLRLSCAASGSTFRYYAMGWYRQAPGKERELVAAITGSGGSTYYADSVKGRFTISRDNAKNTVYLQMNSLKPEDTAVYYCAAYCSRSILRYDSWGQGTQVTVSS | high polyreactivity
20 | QVQLVESGGGLVQAGGSLRLSCGASGRTFRKYAMGWYRQAPGKERELVASITYSGGSTYYADSVKGRFTISRDNAKNTVYLQMNSLKPEDTAVYYCAARLHWNRYPQTLYDYWGLGTQVTVSS | high polyreactivity
21 | QVHLVESGGGLVQAGGSLRLSCAASGSIYHNAMGWYRQAPGKERELVAAITSSGGRTYYADSVKGRFTISRDNAKNTVYLQMNSLKPEDTAVYYCNALAHQYHRYEFGYWGQGTQVTVSS | low polyreactivity
22 | QVQLVESGGGLVQAGGSLRLSCAASGSIFFFNAMGWYRQAPGKERELVAAISESGTSTYYADSVKGRFTISRDNAKNTVYLQMNSLKPEDAAVYYCNVVFRYAYGVYYTPEFYYWGQGTQVTVSS | low polyreactivity
23 | QVQLVESGGGLVQAGGSLRLSCAASGSIFNYYTMGWYRQAPGKERELVAAISWSGGSTYYADSVKGRFTISRDNAKNTVYLQMNSLKPEDTAVYYCAAVVRYSQAGYYYWGQGTQVTVSS | high polyreactivity
24 | QVQLVESGGGLVQAGGSLRLSCAASGSIFYSNVMGWYRQAPGKERELVAAIRYSGVGTYYADSVKGRFTISRDNAKNTVYLLMNSLKPEDTAVYYCNAVTKVGYLRRRDYWGQGTKVTVSS | low polyreactivity
25 | QVQLVESGGGLVQAGGSLRLSCAASGSTLATYTMGWYRLAPGTVRELVGAISFGGSTYYADSVKGRFTISRDNAKNTVYLQMNSLKPVDTAVYYCAVDGDSYWGAYYYSDGYWGQGTQVTVSS | low polyreactivity
26 | QVQLVESGGGLVQAGGSLRLSCAASGSIFNGYAMGWYRQAPGKERELVADIRSGGSTYYADSVKGRFTISRDNAKNTVYLQMNSLKPEDTAVYYCAADTITDGYDYWGQGTQVTVSS | low polyreactivity
27 | QVQLVESGGGLVQAGGSLRLSCAASGRTFYSYAMGWYRQAPGKERELVASITSTGSTYYADSVKGRFTISRDNAKNTVYLQMNSLKPEDTAVYYCAARRQPRYSQRSTYYYWGQGTQVTVSS | high polyreactivity
28 | QVQHVESGGGLVQAGGSLRLICAASGSTFGDNAKGRYREAPGKERELVAVITSDTSTYYADSVKGRFTISRDNAKNTVYLQMNSLKPEDTAVYYCAADWGGLWFWYEYWGQGTQVTVSS | low polyreactivity
29 | QVQLVESGGGLVQAGGSLRLSCAASALTLRTYAMGWYRQAPGKERELVAAITTGGSTYYADSVKGRFTISRDNAKNTVYLQLNSLKPEDTAVYYCAADFIRYINRLLYDYWGQGTQVTVSS | low polyreactivity
30 | QVQHVESGGGLVQAGGSQRLSCAASGSIFDYYAMGWYRQAPGKERELVAAISTSTSSTYYADSVKGRFTISRDNAKNTVYLQLNSLKPEDTAVYYCAAVGESQPEYPGYDYWGQGTQVTVSS | low polyreactivity
31 | QVQLVESGGGLVQAGGSLRLSCAASGSTYRYTMGWYRQAPGKERELVAAITGSAGRTYYADSVKGRFTISRDNAKNTVYLQMNSLKPEDTAVYYCNKDRPRKFWDYYYWGQGTQVTVSS | high polyreactivity
32 | QVQLVESGGGLVLAGGSLRLSCAASGSTFGDYAMGWYRQAPGNERELVAAISARGASTYYADSVKGRFTISRDNAKNTVYLQMNSLKPEDTAVYYCAARYVSSGRRFDYWGQGTQVTVSS | high polyreactivity
